Source: patent publication US10874712B2, “Methods, compounds and compositions for modulating blood brain barrier integrity and re-myelination” (University Health Network, priority 2015, dated 2020)

Experiments:
[1] = test system: splenocytes and lymph node cells of EAE-induced mice; experiment: Flow cytometry of splenocytes and lymph node cells of treated EAE mice; format: in vivo, mouse
Procedure: Mice were euthanized at day 10 post-induction of EAE. Freshly isolated spleens and draining caudal lymph nodes (LN) were pressed using a syringe plunger through a 70 μm cell strainers and washed twice using 2 mL of 2% FBS in complete RPMI-1640 medium (Invitrogen) supplemented with […], L-glutamine, p/s, and non-essential amino acids. Single-cell suspensions were lysed with 7 mL of red blood cell (RBC) lysing buffer (Life Technologies) and centrifuged at 700 rcf for 5 mins. After washing three times with 2% RPMI-1640 medium, cells were counted and cultured as described below or were subjected to cell surface staining.
The expression of cell-surface markers and cytokine expression on splenocytes and LN cells were characterized by flow cytometry. For analysis of naïve cells, 5×10^5 RBC depleted splenocytes and LN cells were plated in 96-well V-bottom plates (Starstedt) and blocked with 50 μl of 1% mouse IgG in 2% FBS PBS supplemented with azide (PFN3) for 20 min at 4° C. Cells were then stained with the following primary conjugated antibodies from BioLegend for 30 min on ice: CD5 (53-7.3), CD3 (145-2C11), CD4 (GK1.5), CD8 (53-6.7), CD19 (6D5), CD11b (M1/70), CD11c (N418), CD80 (16-10A1), CD86 (GL-1), CD44 (IM7), MHCII (M5/114.15.12), CD62L (MEL-14), ICAM-1/CD54 (3E2), IL-17A (TC11-18H10.41), IFN-γ (XMG1.2). All antibodies were re-suspended in PFN3. When required, cells were washed twice with 100 μl of PFN3 and stained with secondary SA-APC, SA-APC-Cy7, SA-PeCy7, or SA-Percp-Cy5.5 for 30 min on ice. Cells were then washed twice with PFN3 and re-suspended in a PFN3 solution containing propidium iodide (PI) before proceeding to FACS analysis.
To examine intracellular cytokine production, 0.5×10^6 RBC-depleted splenocytes and LN cells were plated on 96-well flat bottom plates (BD Biosciences) in 10% FBS in complete RPMI-1640 in the presence of 0.5 μg/mL phorbol 12-myrisate 13-acetate (PMA), 0.5 μg/mL Ionomycin, and Golgistop (BD Biosciences) for 4 h. Cells were subsequently washed in PBS and stained with Near-Infrared Live Dead (Life Technologies) as described in the manufacturer's protocol. Cells were then washed twice in PFN3 and stained for cell surface markers as described previously. Cells were then fixed with 100 μl of Cytofix/Cytoperm solution as per manufacturer's protocol. For intracellular staining, cells were then stained with anti-IL-17A, and anti-IFN-γ for 30 min on ice, washed twice, and re-suspended in PFN3 before proceeding to FACS acquisition. Nonspecific background staining was determined by using fluorochrome-matched isotype antibodies and fluorescence minus one control. […] For each experiment, at least 100,000 live events were acquired and analyzed using Flowjo software (Tree Star Inc.).

EAE-induced mice [2] = experiment: Immunohistochemistry of spinal cord for CD3, B220, CD11b infiltrates; format: in vivo, mouse; conditions: EAE day 18; vs vehicle
Procedure: Spinal cords were isolated and post-fixed with 4% PFA overnight at 4° C., washed 3× with PBS and soaked in 30% sucrose in PBS for 48 h. Tissues were then embedded in Optimal Cutting Temperature (OCT) compound. Frozen sections of spinal cords were cut at 10-30 μm with a cryostat, mounted on gelatinized slides, dried for 2 h and stored at −80° C. Sections were then re-hydrated in PBS for 5 min and permeabilized with PBST (0.3% Triton X-100 in PBS) for 5 min. The tissues were then blocked (PBS, 0.3% Triton X-100, 3% FBS) for 1 h at room temperature and incubated with the following primary antibodies overnight at 4° C. in a humidified chamber: anti-CD3 (145-2C11, BioLegend); CD11b (M1/70, BioLegend); B220 (RA3-6B2, BioLegend), DAPI (MMS-435P, Sigma), Fibrinogen (D9542, Innovative Research).

EAE-induced mice [3] = experiment: In vivo BBB permeability, fibrinogen extravasation in spinal cord; parameters: species or system mouse; conditions: EAE day 18; treated every 3 days; vs vehicle
Procedure: To establish the role of RGMc on BBB permeability, 6-8 week old C57Bl/6 female mice induced with EAE and treated with sRGMc or vehicle (n=6 animals per group) were anesthetized 18 days post induction and trans-cardially perfused with 20 mL PBS followed by 20 mL 4% paraformaldehyde in PBS (PFA) (Electron Microscopy Sciences). Spinal cords were cryo-sectioned at 10 μm thickness and stored at −80° C. The sections were stained for Fibrinogen (Innovative Research); CD31 (Invitrogen); and DAPI (Sigma-Aldrich). All images were obtained using a BX61 confocal microscope (Olympus). CellSens software was used for quantification of cell area and pixel intensity. The area (number of pixels) and fluorescent intensity (mean pixel intensity) of the extravasation markers were measured using CellSens software (Olympus). The relative extent of fluorescent extravasation and BBB disruption was then calculated by multiplying the area with the fluorescent intensity.

rats subjected to MCAO [4] = experiment: Middle Cerebral Artery Occlusion (MCAO), Evans Blue BBB integrity; format: in vivo, rat; conditions: daily tail vein injection of 70 μg, seven days following MCAO
Procedure: The possibility that RGMc may also restore BBB integrity following stroke was also tested. Middle Cerebral Artery Occlusion (MCAO) was performed in rats, which were treated with a daily tail vein injection of 70 μg of RGMc or PBS (control). Seven days following MCAO, animals received injection of Evans blue to monitor BBB integrity (FIG. 24). To measure BBB integrity, the amount of Evans Blue Dye/g of brain tissue was measured. […] This effect was also quantitated: brains were homogenized and the amount of Evans Blue quantified per gram of wet brain (FIG. 24, B).

rats subjected to MCAO [5] = experiment: MCAO, neurological deficit (Bederson test); format: in vivo, rat; conditions: tail-vein injection of 70 μg, 7 day period, vs PBS
Procedure: In a separate experiment, whether RGMc treatment, which prevents BBB disruption following stroke, could lead to functional recovery (FIG. 25) was studied. Rats were subjected to MCAO and treated with either tail-vein injection of 70 μg of RGMc or control (PBS).

B1: sRGMc: truncated form of RGMc with the GPI anchor sequence removed, released as a soluble protein (SEQ ID NOs: 1 and 3) (protein, listed as Homo sapiens)
chain: CKILRCNAEYVSSTLSLRGGGSSGALRGGGGGGRGGGVGSGGLCRALRSYALCTRRTARTCRGDLAFHSAVHGIEDLMIQHNCSRQGPTAPPPPRGPALPGAGSGLPAPDPCDYEGRFSRLHGRPPGFLHCASFGDPHVRSFHHHFHTCRVQGAWPLLDNDFLFVQATSSPMALGANATATRKLTIIFKNMQECIDQKVYQAEVDNLPVAFEDGSINGGDRPGGSSLSIQTANPGNHVEIQAAYIGTTIIIRQTAGQLSFSIKVAEDVAMAFSAEQDLQLCVGGCPPSQRLSRSERNRRGAITIDTARRLCKEGLPVEDAYFHSCVFDVLISGDPNFTVAAQAALEDARAFLPDLEKLH
expression profile of IL-17 and IFN-γ secreted by CD4+ T cells ([1]; PMA and ionomycin stimulated, EAE mice day 10): no effect
expression of adhesion markers (ICAM-1 and CD62L) on CD4+ and CD8+ T cells and B cells ([1]; naive splenocytes and lymph node cells, vs vehicle): does not affect
distribution of effector cells (CD3+, CD8+, CD4+ T cells) ([1]; splenocytes day 10, vs vehicle): does not alter
distributions and activation of dendritic cells (CD11c+) and B cells (MHC II, CD80+/CD86+) ([1]; splenocytes day 10, vs vehicle): unaltered
infiltration of B220+ cells into cervical spinal cords (EAE-induced mice [2]): significantly reduced
infiltration of CD3+ cells into cervical spinal cords (EAE-induced mice [2]): significantly reduced
infiltration of Cd11b+ cells into cervical spinal cords (EAE-induced mice [2]): significantly reduced
fibrinogen extravasation (EAE-induced mice [3]): significant decrease
reduction in Evans Blue levels in the brain compared to PBS-treated animals (rats subjected to MCAO [4]): 3 fold
Evans Blue extravasation into the CNS, visual inspection (rats subjected to MCAO [4]; vs control): strongly reduced
functional scores (Bederson test) (rats subjected to MCAO [5]): significant (*p<0.05) improvement of functional scores
